Assay: yeast display, Sf9 membrane polyspecificity reagent, FACS + sequencing; frameworks hold sequencing errors
Method in brief: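 In a synthetic yeast display library (Saccharomyces cerevisiae BJ5465), nanobody expression was induced with galactose for 36–48 hours. FACS gates were set low and high (top ~1%) using anti-HA fluorescence for expression and streptavidin fluorescence for binding of the Sf9 membrane reagent. Each polyreactivity label is drawn from the gate of origin.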

| Sequence | polyreactivity (PSR sort gate) |
| --- | --- |
| QVQLVESGGGLVQAGGSLRLSCAASGFTFYTNVMGWYIQAPGKERELVAAINSGGSTNYADSVKGRFTISRDNAKNTVYLQMNSLKPEDTAVYYCNKRGTEIGYDYWGQGTQVTVLS | low polyreactivity |
| QVQLVESGGGLVQAGGSLRLSCAASGFTFYTYAMGLYRQAPGKERELVAAITSSGGSTYYADSVKGRFTISRDNAKNTVYLQMKSLKPEDTAVYYCNAVSYYLGDDYWGQGTQVTVSS | high polyreactivity |
| QVQLVESGGGLVQAGGSLRLSCAASGFTFYTYAMGWYRQAPGKERELVAAISGSGSRTYYADSVKGRFTISRDNAKNTVYLQMNSLKPEDTAVYYCNAGYGSGSLHREFNYWGQGTQVTVSS | low polyreactivity |
| QVQLVESGGGLVQAGGSLRLSCAASGFTFYTYAMGWYRQAPGKERELVAAITGSGGRTYYADSVKGRFTISRDNAKTTVYLQMNSLKPEDTAVYYCAALYVYRPRTPYGYWGQGTQVTVSS | high polyreactivity |
| QVQLVESGGGLVQAGGSLRLSCAASGFTFYTYAMGWYRQAPGKERELVATITGRTGSTYYADSVKGRFTISRDNAKNTVYLQMNSLKPEDTAVYYCAADWGKLHVTWFRVNYWGQGTQVTVSS | low polyreactivity |
| QVQLVESGGGLVQAGGSLRLSCAASGFTFYTYDMGWYRQAPGKERALVAAITSGVSTNYADSVKGRFTISRDNAKNTVYLQMNSLKPEDTAVYYCNKDVRPAYRWYDYWGQDTQVTVSS | low polyreactivity |
| QVQLVESGGGLVQAGGSLRLSCAASGFTFYTYFMGWYRPAPGKERELVAAITSGVSTNYADSVKGRFTISRDNAKNTVYLQMNSLKPEDTAVYYCNKDVRPAYRWYDYWGQDTQVTVSS | low polyreactivity |
| QVQLVESGGGLVQAGGSLRLSCAASGFTFYTYTMGWYRQAPGKERELVAVISRSGGSTYYADSVKGRFTISRDNAKNTVYLQMNSLKPEDTAVYYCNAGYWRFIDSYDYWGQGTQVTVSS | high polyreactivity |
| QVQLVESGGGLVQAGGSLRLSCAASGFTFYWTAMGWYRQAPGKERELVAAINGGDSTNYADSVKGRFTISRDNAKNTVYLQMNSLKPEDTAVYYCAKYYYTSIVGYDSWGQGTQVTVSS | low polyreactivity |
| QVQLVESGGGLVQAGGSLRLSCAASGFTFYWYDMGWYRQAPGKERELVSTISTGGGTNYADSVKGRFTISRDNAKNTVYLQMNSLKPEDNAVYYCAADGSAGYQWGYDFEGDYWGQGTEVTVSS | high polyreactivity |
| QVQLVESGGGLVQAGGSLRLSCAASGFTFYWYTMAWNRQAPGKERELVAAISRRGGSTSYADSVKGRFTISRDNAKNTVYLQMNSLKPDDTAVYYCAKTPGWTDYDYWGQGTQVTVSS | high polyreactivity |
| QVQLVESGGGLVQAGGSLRLSCAASGFTFYWYTMGWYRPAPGKERELVATISGSGGRTYYADSVKGRFTISRDNAKNTVYLQMNSLKPEDSAVYYCNAGRPYKYGYWGQGTQVTVSS | high polyreactivity |
| QVQLVESGGGLVQAGGSLRLSCAASGFTFYYNAMGCYRQAPGKERELVAIRFRGGNTYYADSVKGRFTISRDNAKNTVYLQMNSLKPEDTAVYYCNADDRGSTYVDFDYWGQGTQVTVSS | low polyreactivity |
| QVQLVESGGGLVQAGGSLRLSCAASGFTFYYNAMGWYRQAPGKERELVASITRSGGRTYYADSVKGRFTISRDNAKNTVYLQMNSLKPEDTAVYYCARRYPGGYYWGQGTQVTVSS | high polyreactivity |
| QVQLVESGGGLVQAGGSLRLSCAASGFTFYYYAMGWYRQAPGKERELVAAISKSGGSTYYADSVKGRFTISRDNAKNTVYLQMNSLKPEDTAVYYCARDKGSSGKGHGYWGQGTQVTVSS | high polyreactivity |
| QVQLVESGGGLVQAGGSLRLSCAASGFTFYYYAMGWYRQAPGKERELVAAISSGGRTNYADSVKGRFTISRDNAKNTVYLQMNSLKPEDTAVYYCAAQYRNYFPYRVVRQGVGYWGQGTQVTVSS | high polyreactivity |

| Sequence | polyreactivity (PSR sort gate) |
| --- | --- |
| QVQLVESGGGLVQAGGSLRLSCAASGFTFYYYAMGWYRQAPGKERELVASISSRGGSTYYADSVKGRFTISRDNAKNTVYLQMNSLKPEDTAVYYCAARTRRYKFDYWGQGTQVTVSS | high polyreactivity |
| QVQLVESGGGLVQAGGSLRLSCAASGFTFYYYTLGWYRQAPGKVRELVARITTRGTSTYYADSVKGRFRISRDTPKNTVYLPMNSLKPEDTAVYYCAAQVGRGYEVYAVYKYGYWGQGTQVTVSS | high polyreactivity |
| QVQLVESGGGLVQAGGSLRLSCAASGFTFYYYTMGWYRQAPGKERELVAAITISGGSTYYADSVKGRFTISRDNAKNTVYLQMNSLKPEDSAVYYCNADYQWYLGGYDFWGQGTQVTVSS | high polyreactivity |
| QVQLVESGGGLVQAGGSLRLSCAASGFTIARNTMGWYRPAPGKERELVAAISGGGSTNYADSVKGRFTISRDNAKYTVYLQMNSLKPEDTAVYYCNADSNSDNNDYDYWGQGTQVTVSS | low polyreactivity |
| QVQLVESGGGLVQAGGSLRLSCAASGFTIDAYAMGWYRQAPGKERELVAAISDGGNTYYADSVKGRFTISRDNAKNTVYLQMNSLKPEDTAVYYCNVDWYSYWYYTYEKSSEWAMEYWGQGTQVTVSS | low polyreactivity |
| QVQLVESGGGLVQAGGSLRLSCAASGFTIFSYAMGWYRQAPGKERELVAAISRRGGSTYYADSVKGRFTISRDNAKNTVYLQMNSLKPEDTAVYYCAAGPRWHTNGWAYDYWGQGTQVTVSS | high polyreactivity |
| QVQLVESGGGLVQAGGSLRLSCAASGFTIGANNMGWYRQAPGKERELLAAISASGGSTYYADSVKGRFTISRDNAKNTVYLQMNSLKPEDTAVYYCAARRYPGRTATYYSWGQGTQVTVSS | high polyreactivity |
| QVQLVESGGGLVQAGGSLRLSCAASGFTIKYYAMGWYRQAPGKEREFVAAISSSGGRTYYADSVKVRFTISRDYAKNTVYLQMNSLKPEDTAVYYCAAAWGTYGYHYDYLGQGTQVTVSS | low polyreactivity |
| QVQLVESGGGLVQAGGSLRLSCAASGFTIPTYAMVWYRQAPGKERELVAAITRGGSTYYADSVKGRFTISRDNAKYTVYLQMNSLKPEDTAVYYCAADDPWYEEDYWGQGTQVTVSS | low polyreactivity |
| QVQLVESGGGLVQAGGSLRLSCAASGFTISPYAMGWYRQAPGKERELVAAITRRSGSTYDADSVKGRFTISRDNAKNTVYLQMNSLKPEDTAVYYCNAKFYTAVYSYSLFNYWGQGTQVTVSS | high polyreactivity |
| QVQLVESGGGLVQAGGSLRLSCAASGFTISRYNMGWYRQAPGKEREMVAAISGSGGSTYYADSVKGRFTISRDNAKNTVYLQMNSLKPEDTAVYYCNAVRNWYYTPWEMNYWGQGTQVTVSS | high polyreactivity |
| QVQLVESGGGLVQAGGSLRLSCAASGFTITAYAMGWYRQAPGKERELVAAISYSGGRTYYADSVKGRFTISRDIAKNTVYLQMNSLKTEDTAVYYCYAVLAHYQSLVYWGQGSQVTVSS | high polyreactivity |
| QVQLVESGGGLVQAGGSLRLSCAASGFTITIYAMGWYRQAPGKERELVATISGRAGRTYYADSVKGRFTISRDNAKNTVYLQMNSLKPEDTAVYYCNAGQWRYPGLYYYWGQGTQVTVSS | high polyreactivity |
| QVQLVESGGGLVQAGGSLRLSCAASGFTITRYAMGWYRQAPGKERELVARITGRGGGTFYADSVKGRFTISRDNAKNTVYLQMNSLKPEDTAVYYCNTDYGSSYNYWGQGTQVTVSS | high polyreactivity |
| QVQLVESGGGLVQAGGSLRLSCAASGFTIVPYAMGWYRQAPGKERELVAAITSGGSTYYADSVKGRFTISRDNAKNTVYLQMNSLKPEDTAVYYCNRGRYRRRYTYSQYDYWGQGTQVTVSS | high polyreactivity |
| QVQLVESGGGLVQAGGSLRLSCAASGFTIYGYAMGGDRQAPGPERELVAAITSRGGSTYYADSVKGRFTISRDNAKNTVYLQMNSLKPEDTAVYYCSKASGIYLGSRYYDVPMDYWGQGTQVTVSS | high polyreactivity |

From the nanobody polyreactivity screen of Harvey et al. (2022)
